{"source": "patent US20160090426A1", "about": "(WUHAN YZY BIOPHARMA, published 2016)", "binders": {"B1": {"name": "EpCAM×CD3 bispecific antibody M701 (bispecific antibody, human IgG1, kappa)", "heavy": "EVQLLEQSGAELVRPGTSVKISCKASGYAFTNYWLGWVKQRPGHGLEWIGDIFPGSGNIHYNEKFKGKATLTADKSSSTAYMQLSSLTFEDSAVYFCARLRNWDEPMDYWGQGTTVTVSSASTKGPSVFPLAPSSKSTSGGTAALGCLVKDYFPEPVTVSWNSGALTSGVHTFPAVLQSSGLYSLSSVVTVPSSSLGTQTYICNVNHKPSNTKVDKKVEPKSCDKTHTCPPCPAPELLGGPSVFLFPPKPKDTLMISRTPEVTCVVVDVSHEDPEVKFNWYVDGVEVHNAKTKPREEQYNSTYRVVSVLTVLHQDWLNGKEYKCKVSNKALPAPIEKTISKAKGQPREPQVYTLPPSRDELTKNQVSLWCLVKGFYPSDIAVEWESNGQPENNYDTTPPVLDSDGSFFLYSDLTVDKSRWQQGNVFSCSVMHEALHNHYTQKSLSLSPGK", "light": "ELVMTQSPSSLTVTAGEKVTMSCKSSQSLLNSGNQKNYLTWYQQKPGQPPKLLIYWASTRESGVPDRFTGSGSGTDFTLTISSVQAEDLAVYYCQNDYSYPLTFGAGTKLEIKRTVAAPSVFIFPPSDEQLKSGTASVVCLLNNFYPREAKVQWKVDNALQSGNSQESVTEQDSKDSTYSLSSTLTLSKADYEKHKVYACEVTHQGLSSPVTKSFNRGEC", "chain": "not shown", "notes": "Heterodimer of one anti-EpCAM heavy/light chain pair (IgG form) and one anti-CD3 ScFv-Fc; also called EpCAM×CD3 MSBODY; EpCAM×CD3 MSBODY bispecific antibody"}}, "key": {"[1]": {"biological_target": "T1, EpCAM on EpCAM-positive HCT116 cells (UniProt P16422 24-314, limits assumed)", "T1 sequence (looked up)": "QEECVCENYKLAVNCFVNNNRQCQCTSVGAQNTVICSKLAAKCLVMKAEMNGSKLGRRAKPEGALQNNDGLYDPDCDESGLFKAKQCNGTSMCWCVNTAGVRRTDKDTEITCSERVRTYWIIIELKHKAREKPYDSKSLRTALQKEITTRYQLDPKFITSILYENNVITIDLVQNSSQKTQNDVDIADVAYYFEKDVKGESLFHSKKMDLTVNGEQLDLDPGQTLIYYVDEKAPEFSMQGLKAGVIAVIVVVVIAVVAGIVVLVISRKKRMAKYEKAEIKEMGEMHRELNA", "assay": "cell-based or functional assay"}, "[2]": {"biological_target": "CD3 on CD3-positive Jurkat cells", "assay": "cell-based or functional assay"}, "[3]": {"biological_target": "T2, CD3 on CD3-positive Jurkat cells", "T2 construct": "whole, on cells", "assay": "flow cytometry on Jurkat cells, KD fitted from mean fluorescence intensity", "procedure": "(§1) Enough HCT116 cells are cultured, digested with 0.25% trypsin and then collected by centrifugation. In the meantime, the bispecific antibody was diluted according to the concentration beginning from 10 ug/ml and ten-fold gradient dilution to obtain twelve concentration gradients for later use.\nEnough Jurkat suspension cells were cultured and collected by centrifugation. The same as the steps described in the example forementioned, in the following experimental process, the cells resuspended with 100 ul PBS were detected on an instrument, and the binding affinity KD value of the bispecific antibody and the Jurkat cells was analyzed and calculated according to the mean fluorescence intensity by using software GraphPadPrism 5.0."}, "[4]": {"biological_target": "T1, EpCAM on EpCAM-positive HCT116 cells", "assay": "flow cytometry on HCT116 cells, PE anti-human IgG Fc, KD fitted from mean fluorescence intensity", "procedure": "as §1"}}}
{"binder": "B1", "values": [{"measurement": "ratio of bifluorescence via flow cytometer detection (double positive CFSE-HCT116 / PKH-26-Jurkat cells)", "setting": "[1]", "value": 27.5, "unit": "%"}, {"measurement": "ratio of bifluorescence via flow cytometer detection (double positive CFSE-HCT116 / PKH-26-Jurkat cells)", "setting": "[2]", "value": 27.5, "unit": "%"}, {"measurement": "Kd", "setting": "[3]", "value": 14.3, "unit": "nM"}, {"measurement": "Kd", "setting": "[4]", "value": 9.6, "unit": "nM"}]}
